Data as given in patent CN110563849A.

Target: PD-1-mFc (人PD-1胞外区加Fc纯化标签) (human) (UniProt Q15116)
Assay: ELISA of the subclone's supernatant on plate-coated PD-1 antigen

UniProt Q15116, sequence (Q15116 25-170): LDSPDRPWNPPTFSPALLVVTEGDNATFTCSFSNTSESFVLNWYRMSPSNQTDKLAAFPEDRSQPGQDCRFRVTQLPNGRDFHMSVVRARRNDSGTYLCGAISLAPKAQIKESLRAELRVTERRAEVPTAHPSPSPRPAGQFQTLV

OD值: 1.02 OD
B1: 抗PD-1鼠源单克隆抗体 (阳性克隆2G8-1N8) (antibody, V domains shown)
VH: EVKLVESGGGLVKPGGSLKLSCAASGFTFSSYGMSWVRQTPEKRLEWVATISGGGSYTYYPDSVKGRFTISRDNAKNNLYLQMSSLRSEDTALYYCASRFGEAWFAYWGQGTLVTVSA
VL: DIKMTQSPSSMYASLGERVTITCKASQDINSYLSWFQQKPGKSPKTLIYRANRLVDGVPSRFSGSGSGQDYSLTISSLEYEDMGIYYCLQYDEFPLTFGAGTKLELK
